Measured values reported in patent publication US20090291088A1, “THERAPEUTIC COMBINATIONS OF ANTI-IGF-1R ANTIBODIES AND OTHER COMPOUNDS” (Biogen Idec MA Inc., priority 2008, published 2009).

B1: Fab M14-B01: human anti-human IGF-1R Fab from phage display library; VH SEQ ID NO:20, VL SEQ ID NO:83 (antibody, V domains shown)
VH: EVQLLESGGGLVQPGGSLRLSCAASGFTFSNYHMAWVRQAPGKGLEWVSVISPTGGRTTYADSVKGRFTISRDNSKNTLYLQMNSLRAEDTATYYCARAGYSYGYGYFDYWGQGTLVTVSS
VL: DIQMTQFPATLSVSPGERATLSCRASQSVMRNLAWYQQKPGQPPRLLIYGASKRATGIPARFSGSGSGTAFTLTISNLEPEDFAVYYCHQRSTWPLGTFGPGTKLEAK
modifications: Antibody variable heavy chain sequence; Antibody variable light chain sequence
B2: M12-E01.G4.P: full-length human IgG4.P version of Fab M12-E01 (antibody, V domains shown)
VH: EVQLLESGGGLVQPGGSLRLSCAASGFTFSPYSMLWVRQAPGKGLEWVSSIGSSGGSTRYADSVKGRFTISRDNSKNTLYLQMNSLRAEDTAMYYCARVRGILHYDILIGRNLYYYYMDVWGKGTTVTVSS
VL: QYELTQPPSVSEAPRQRVTISCSGSSSNIGNNAINWYQQLPGKPPKLLIYYDDLLPSGVSDRFSGSKSGTSGSLAISGLQSEDEADYYCAAWDDNLNGVIFGGGTKLTVL
B3: M14-C03.G4.P: full-length human IgG4.P version of Fab M14-C03 (antibody, V domains shown)
VH: EVQLLESGGGLVQPGGSLRLSCAASGFTFSKYMMSWVRQAPGKGLEWVSYISPSGGLTWYADSVKGRFTISRDNSKNTLYLQMNSLRAEDTAVYYCARDGARGYGMDVWGQGTTVTVSS
VL: DIQMTQSPATLSLSPGERATLSCRASQSVSSYLAWYQQKPGQAPRLLIYDASNRATGIPARFSGSGSGTDFTLTISSLEPEDFAVYYCQQRSNWPPEVTFGPGTKVDIK
B4: M12-G04.G4.P: full-length human IgG4.P version of Fab M12-G04 (antibody, V domains shown)
VH: EVQLLESGGGLVQPGGSLRLSCAASGFTFSKYTMHWVRQAPGKGLEWVSSIVSSGGWTDYADSVKGRFTISRDNSKNTLYLQMNSLRAEDTAVYYCARDRSIAAAGTGWSVSFVDWFDPWGQGTLVTVSS
VL: DIQMTQSPLSLSASVGDRVTITCRASQSINGYLNWYQQKPGKAPNLLIYATSSLQSGVPSRFSGSGSGTDFTLTISSLQPEDFATYYCQQSYSTPPYTFGQGTKLEIK
B5: Fab M12-G04: human anti-human IGF-1R Fab from phage display library; VH SEQ ID NO:9, VL SEQ ID NO:73 (antibody, V domains shown)
VH: EVQLLESGGGLVQPGGSLRLSCAASGFTFSKYTMHWVRQAPGKGLEWVSSIVSSGGWTDYADSVKGRFTISRDNSKNTLYLQMNSLRAEDTAVYYCARDRSIAAAGTGWSVSFVDWFDPWGQGTLVTVSS
VL: DIQMTQSPLSLSASVGDRVTITCRASQSINGYLNWYQQKPGKAPNLLIYATSSLQSGVPSRFSGSGSGTDFTLTISSLQPEDFATYYCQQSYSTPPYTFGQGTKLEIK
modifications: Antibody variable heavy chain sequence; Antibody variable light chain sequence

How the values were obtained:
IGF-1R = molecular target: T1, IGF-1R (Homo sapiens, UniProt P08069); assay: Ligand blocking assay (RIA): 125I-IGF-1 / 125I-IGF-2 binding to immobilized IGF-1R; conditions: for IGF Blocking IGF-1 / IGF Blocking IGF-2: Fabs; for IGF Blocking IGF-1: 125I-IGF-1; for IGF Blocking IGF-2: 125I-IGF-2; for blocking of IGF-1 and IGF-2 binding to IGF-1R: 100 nM-0.01 nM antibody, IGF-1R-Fc
T1 construct: human IGF-1R(1-903)-Fc (denoted hIGF-1R-Fc, generated by Biogen Idec)
Text: Ligand blocking assay (RIA). […] Insulin (Arg-Insulin, Cat #01-207) was purchased from Upstate Cell Signaling Solutions (Lake Placid, N.Y. (now part of Millipore, Concord, Mass. (USA)). ^125I-rhIGF-1 (Cat # IM172), ^125I-rhIGF-2 (Cat# IM238) and ^125I-rhInsulin (Cat# IM166) were purchased from Amersham Biosciences (Piscataway, N.J.). AffiPure goat anti-human IgG, Fcγ fragment specific antibodies (Cat #109-005-098, Jackson ImmunoResearch, West Grove, Pa.) was used for IGF-1R-Fc capture. As detection antibody, goat anti-mouse IgG HRP (Cat #1030-05, Southern Biotech Birmingham, Ala.) was used.
Human insulin receptor α-subunit specific antibodies, Clone 83-14, (Cat #AHR0221, Biosource International, Inc., Camarillo, Calif.) and the 47-9 (Cat #E55502M, Biodesign International, Saco, M E) were used as positive controls blocking of insulin-insulin receptor binding experiments. Recombinant IGF-1R-Fc fusion protein was produced at Biogen Idec (Cambridge, Mass.).
As isotype matched mouse negative control antibodies, 2B8 (murine α-CD20.1gG,) and 2B8 mkm.G2a (murine α-CD20 MAb, IgG2a, Biogen Idec, Lot #NB3304-87, San Diego, Calif.) were used. The negative control for Fabs was R001-1B provided by Christilyn Graff (Biogen Idec, Cambridge, Mass.). PBS used in buffers was from BioWhittaker (Cat. # 17-513F, Walkersville, Md.).
Recombinant human IGF-1R (Histidine tagged version) or IGF-1R-Fc was coated onto IMMULON2 HB (high binding) Removawell strips (Dynex Technologies, Inc., cat. #6302) diluted with carbonate coating buffer pH 9.5 to a concentration of 250 ng/well. After overnight incubation at 4° C., the wells were washed three times with washing buffer (0.05% Tween 20/PBS) then blocked with blocking buffer (3% BSA/PBS) for one hour at room temperature. The blocking buffer was removed and the wells washed three more times. Antibody, Fab, or ligand preparations were diluted to desired concentration with dilution buffer (1% BSA/0.05% Tween 20/PBS) and plated at 50 μl per well in duplicate. After 45 minutes at room temperature, 100,000 cpm of either [125I] rhIGF-1 or [125I] rhIGF-2 in 50 μl dilution buffer was added per well. This was incubated at room temperature for one more hour. The wells were washed again three more times and left liquid free after the last wash. The air-dried wells were counted with the Isodata Gamma Counter.
Alternatively, Fabs were evaluated by a modified capture assay, where the IGF-1R-Fc was captured using anti-human IgG immobilized to a plate. Immobilization was carried out by overnight incubation of goat anti-human IgG, Fcγ fragment specific antibody (200 ng/well) in carbonate coating buffer. The wells were washed, blocked and 250 ng of IGF-1R-Fc was added per well.
The ligand blocking ability of the anti-IGF-1R antibody was determined by a solid phase RIA capture method as described in Example 3. […] After 1 hour of incubation at room temperature, the wells were washed and counted for bound radioactivity by a Gamma Counter. An isotype matched negative antibody control, IDEC-151 (human G4), was used. Percent (%) inhibition was calculated as =[1−(Ave.CPM with Ab)/(Ave.CPM with buffer)]×100%.

IGF-1R phosphorylation = molecular target: T2, IGF-1R phosphorylation (Homo sapiens, UniProt P08069); assay: Inhibition of IGF-1 and IGF-2 mediated IGF-1R phosphorylation in MCF-7 cells (ELISA); type: cell-based; conditions: Fabs, MCF-7; for Inhibition of IGF-1R Phosphorylation IGF-1: IGF-1 stimulated; for Inhibition of IGF-1R Phosphorylation IGF-2: IGF-2 stimulated
T2 construct: wild type IGF-1R expressed on MCF-7 tumor cells; endogenous in cells; host or cells: MCF-7
Description: Cell lines: IGF1R expressing human breast carcinoma cell line MCF-7 (NCI) were maintained at 37° C. and 5% CO2 in MEM eagle (ATCC) containing 10% FBS, 1× non-essential amino acids, 2 mM L-glutamine, 1 mM sodium pyruvate and 1000 U/ml penicillin and streptomycin. Cells were sub-cultured twice weekly for maintenance and assay, and used with a maximum of 12 passages.
MCF-7 cells were plated in 2 ml growth media at 2×10^5 to 4.0×10^5 cells/well in Ploy-D-Lysine coated 12 well plates (BD Biosciences, #35-6470) and cultured at 37° C., 5% CO2. At 48 hours, media removed and cells serum starved overnight at 37° C., 5% CO2 Serum free media was removed and control or test antibodies at indicated concentration were added in 350 ul of fresh serum free media and incubated for 1 hour at room temperature, or alternately at 37° C. Fabs were tested at 200 nM, 20 nM and 2 nM concentration and the mAbs were tested at 67, 6.7 and 0.67 nM. The commercial anti-IGF-1R control antibody used was αIR3 (EMD biosciences, Oncogene Research products, #D27249). […] Ligand was incubated at […] for 37° C. antibody experiments. Cells were lysed in 1× cell lysis buffer (Cell Signal Technologies, #9803) with 1 mM PMSF for 1 hour at room temperature.
Cell lysates were added to ELISA plates pre-coated with IGF-1Rp antibody (Clone 1-2, Biosource International, #AHR0361) and incubated for 2 hours. Following which plates were washed and the plate bound phosphorylated receptor was detected with the biotin labeled anti-phosphotyrosine antibody 4G10 (Catalog #16-103, Upstate Cell Signaling Solutions (Lake Placid, N.Y. (now part of Millipore, Concord, Mass. (USA)) and streptavidin-HRP (BD Pharmingen, #554066). Assay is developed by addition of TMB substrate (Kierkegaard & Perry, #50-76-00) and color stopped by addition of […] (LabChem, Cat#LC25830-1). Optical density is measured at 450 nm using a Molecular Devices plate reader and percent inhibition over the ligand control is calculated for each antibody-ligand sample.
The effect of human anti-IGF-1R antibodies on IGF-1R signaling was evaluated using MCF-7 cells (human breast adenocarcinoma cells).

Row | Molecule | IGF Blocking IGF-1 (IGF-1R) | IGF Blocking IGF-2 (IGF-1R) | Inhibition of IGF-1R Phosphorylation IGF-1 (IGF-1R phosphorylation) | Inhibition of IGF-1R Phosphorylation IGF-2 (IGF-1R phosphorylation) | blocking of IGF-1 and IGF-2 binding to IGF-1R (IGF-1R)
1 | B1 | ++ (>30%@1ug/ml) | ++ (>30%@1ug/ml) | ++ (>30%@1ug/ml) | ++ (>30%@1ug/ml) | –
2 | B2 | – | – | – | – | block both IGF-1 and IGF-2 binding
3 | B3 | – | – | – | – | blocked only IGF-2 binding
4 | B4 | – | – | – | – | block both IGF-1 and IGF-2 binding
5 | B5 | + (>30%@10ug/ml) | + (>30%@10ug/ml) | + (>30%@10 ug/ml) | + (>30%@10 ug/ml) | –
